{"source": "paper PMC10163214", "about": "“E. coli allantoinase is activated by the downstream metabolic enzyme, glycerate kinase, and stabilizes the putative allantoin transporter by direct binding” (Scientific Reports, 2023)", "molecules": {"B1": {"name": "AllB (allantoinase; AllB_Zn, AllB_Mn) (Escherichia coli K-12) (protein)", "chain": "MSFDLIIKNGTVILENEARVVDIAVKGGKIAAIGQDLGDAKEVMDASGLVVSPGMVDAHTHISEPGRSHWEGYETGTRAAAKGGITTMIEMPLNQLPATVDRASIELKFDAAKGKLTIDAAQLGGLVSYNIDRLHELDEVGVVGFKCFVATCGDRGIDNDFRDVNDWQFFKGAQKLGELGQPVLVHCENALICDELGEEAKREGRVTAHDYVASRPVFTEVEAIRRVLYLAKVAGCRLHVCHVSSPEGVEEVTRARQEGQDVTCESCPHYFVLDTDQFEEIGTLAKCSPPIRDLENQKGMWEKLFNGEIDCLVSDHSPCPPEMKAGNIMKAWGGIAGLQSCMDVMFDEAVQKRGMSLPMFGKLMATNAADIFGLQQKGRIAPGKDADFVFIQPNSSYVLTNDDLEYRHKVSPYVGRTIGARITKTILRGDVIYDIEQGFPVAPKGQFILKHQQ", "notes": "full length; expressed in E. coli; tetrameric"}, "B2": {"name": "GlxK (glycerate 2-kinase) (Escherichia coli K-12) (protein)", "chain": "MKIVIAPDSFKESLSAEKCCQAIKAGFSTLFPDANYICLPIADGGEGTVDAMVAATGGNIVTLEVCGPMGEKVNAFYGLTGDGKTAVIEMAAASGLMLVAPEKRNPLLASSFGTGELIRHALDNDIRHIILGIGGSATVDGGMGMAQALGVRFLDADGQALAANGGNLARVASIEMDECDPRLANCHIEVACDVDNPLVGARGAAAVFGPQKGATPEMVEELEQGLQNYARVLQQQTEINVCQMAGGGAAGGMGIAAAVFLNADIKPGIEIVLNAVNLAQAVQGAALVITGEGRIDSQTAGGKAPLGVASVAKQFNVPVIGIAGVLGDGVEVVHQYGIDAVFSILPRLAPLAEVLASGETNLFNSARNIACAIKIGQGIKN", "notes": "full length, N-terminal His6 tag, expressed in E. coli; GlxK-His 41 kDa"}}, "key": {"[1]": {"molecular_target": "T1, AllW (YbbW) (Escherichia coli, UniProt P75712)", "T1 construct": "native chromosomal AllW in delta-allC cells, stabilised by AllB; compared with allW and allB deletion strains; with Allantoinase", "T1 sequence (P75712 whole entry)": "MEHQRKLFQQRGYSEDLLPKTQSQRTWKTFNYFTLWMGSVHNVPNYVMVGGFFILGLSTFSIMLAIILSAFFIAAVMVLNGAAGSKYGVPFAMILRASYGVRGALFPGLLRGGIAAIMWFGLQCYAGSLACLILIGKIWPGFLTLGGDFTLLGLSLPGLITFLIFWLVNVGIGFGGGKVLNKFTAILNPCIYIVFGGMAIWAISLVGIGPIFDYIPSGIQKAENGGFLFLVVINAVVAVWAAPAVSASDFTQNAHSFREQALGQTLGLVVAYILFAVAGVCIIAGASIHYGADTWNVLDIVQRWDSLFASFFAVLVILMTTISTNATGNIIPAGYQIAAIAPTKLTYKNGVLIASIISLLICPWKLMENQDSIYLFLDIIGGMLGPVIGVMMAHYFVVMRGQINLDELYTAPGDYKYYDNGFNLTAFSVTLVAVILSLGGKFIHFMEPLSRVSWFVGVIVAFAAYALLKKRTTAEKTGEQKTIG", "test": "cellular allantoin uptake by GC-MS", "format": "cell-based", "settings": "1 mM allantoin, PBS with glucose, delta-allC cells; uptake lost in allW or allB deletion"}, "[2]": {"molecular_target": "T2, AllB (allantoinase; AllB_Zn, AllB_Mn) (Escherichia coli, UniProt P77671)", "T2 construct": "full length; expressed in E. coli; tetrameric", "T2 sequence (P77671 1-453)": "B1 chain", "test": "absorbance of allantoate at […] nm", "format": "biochemical", "settings": "0.1 mM ZnSO4, no GlxK, no glyoxylate, pH 8.0"}, "[3]": {"substrate": "NC(=O)NC1NC(=O)NC1=O", "test": "purified protein", "format": "biochemical, Escherichia coli", "settings": "AllB_Mn, 0.2 mM MnSO4, no GlxK, 0.9 mM glyoxylate present, pH 8.0, 37 °C"}, "[4]": {"substrate": "O=C(O)[C@H](O)CO", "test": "purified protein", "format": "biochemical, Escherichia coli", "settings": "10 mM MgSO4, 1.2 mM ATP, pH 7.4, 37 °C"}}}
{"molecule": "NC(=O)NC1NC(=O)NC1=O", "note": "(stereo not drawn) [allantoin]", "values": [{"measurement": "cellular allantoin uptake by GC-MS", "setting": "[1]", "result": "no allantoin uptake was detected in either the AW12 (ΔallC–ΔallB) or the AW13 (ΔallC–ΔallW) mutant"}, {"measurement": "Km", "setting": "[2]", "result": "> 15", "unit": "mM"}]}
{"molecule": "B1", "values": [{"measurement": "Km", "setting": "[3]", "result": "5.8 ± 1.2", "unit": "mM"}, {"measurement": "Vmax", "setting": "[3]", "result": "246 ± 32", "unit": "U/mg protein"}]}
{"molecule": "B2", "values": [{"measurement": "Km", "setting": "[4]", "result": "0.085 ± 0.009", "unit": "mM"}, {"measurement": "Vmax", "setting": "[4]", "result": "4.6 ± 0.3", "unit": "U/mg protein"}]}
